Laboratory results taken from publication PMC9482650, “Quantitative fragmentomics allow affinity mapping of interactomes” (Nature Communications, 2022).

Experiments:
Experiment in all cases: holdup assay
Design in all cases: key: below the threshold = too weak to quantify, mostly under pKd 3.1 to 4
SCRIB_2, Q14160 = molecular target: SCRIB_2, Q14160
DFNB31_1, Q9P202 = molecular target: T1, DFNB31_1, Q9P202
T1 sequence (Q9P202 135-233, limits assumed, looked up): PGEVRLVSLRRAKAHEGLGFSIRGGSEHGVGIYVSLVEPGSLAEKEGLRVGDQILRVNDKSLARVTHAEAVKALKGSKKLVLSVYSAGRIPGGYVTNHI

CASK, O14936 = molecular target: CASK, O14936
FRMPD1, Q5SYB0 = molecular target: T2, FRMPD1, Q5SYB0
T2 sequence (Q5SYB0 52-145, limits assumed, looked up): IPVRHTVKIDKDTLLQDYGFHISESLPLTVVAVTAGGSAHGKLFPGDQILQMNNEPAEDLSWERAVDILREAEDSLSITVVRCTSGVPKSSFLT

MPDZ_10, O75970 = molecular target: T3, MPDZ_10, O75970
T3 sequence (O75970 1624-1722, limits assumed, looked up): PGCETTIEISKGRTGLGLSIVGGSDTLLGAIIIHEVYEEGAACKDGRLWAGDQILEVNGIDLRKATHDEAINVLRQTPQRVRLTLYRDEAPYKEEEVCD

NHERF3_1, Q5T2W1 = molecular target: T4, NHERF3_1, Q5T2W1
T4 sequence (Q5T2W1 4-100, limits assumed, looked up): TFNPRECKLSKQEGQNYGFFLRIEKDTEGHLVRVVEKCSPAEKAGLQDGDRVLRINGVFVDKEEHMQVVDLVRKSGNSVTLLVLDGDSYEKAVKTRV

TJP2_1, Q9UDY2 = molecular target: TJP2_1, Q9UDY2
MAGI2_2, Q86UL8 = molecular target: MAGI2_2, Q86UL8
LIN7A, O14910 = molecular target: T5, LIN7A, O14910
T5 sequence (O14910 103-200, limits assumed, looked up): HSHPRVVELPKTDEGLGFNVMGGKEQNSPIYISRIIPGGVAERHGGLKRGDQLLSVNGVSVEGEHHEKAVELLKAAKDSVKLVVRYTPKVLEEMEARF

GRID2IP_1, A4D2P6 = molecular target: GRID2IP_1, A4D2P6
DLG2_3, Q15700 = molecular target: DLG2_3, Q15700
Inadl_10, Q8NI35 = molecular target: Inadl_10, Q8NI35
MAGI1_1, Q96QZ7 = molecular target: MAGI1_1, Q96QZ7
GIPC2, Q8TF65 = molecular target: GIPC2, Q8TF65
GRIP2_3, Q9C0E4 = molecular target: GRIP2_3, Q9C0E4
FRMPD2_3, Q68DX3 = molecular target: FRMPD2_3, Q68DX3
PDLIM1, O00151 = molecular target: PDLIM1, O00151
GRASP, Q7Z6J2 = molecular target: GRASP, Q7Z6J2
RADIL, Q96JH8 = molecular target: T6, RADIL, Q96JH8
T6 sequence (Q96JH8 971-1071, limits assumed, looked up): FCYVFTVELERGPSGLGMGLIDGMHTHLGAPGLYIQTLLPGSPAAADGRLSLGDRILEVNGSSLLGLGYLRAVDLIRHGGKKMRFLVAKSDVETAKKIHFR

MAGI2_3, Q86UL8 = molecular target: MAGI2_3, Q86UL8
MPDZ_5, O75970 = molecular target: T7, MPDZ_5, O75970
T7 sequence (O75970 695-796, limits assumed, looked up): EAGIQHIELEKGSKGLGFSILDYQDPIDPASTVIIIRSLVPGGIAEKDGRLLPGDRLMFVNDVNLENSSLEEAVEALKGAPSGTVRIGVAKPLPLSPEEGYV

SCRIB_1, Q14160 = molecular target: SCRIB_1, Q14160
DFNB31_2, Q9P202 = molecular target: T8, DFNB31_2, Q9P202
T8 sequence (Q9P202 274-371, limits assumed, looked up): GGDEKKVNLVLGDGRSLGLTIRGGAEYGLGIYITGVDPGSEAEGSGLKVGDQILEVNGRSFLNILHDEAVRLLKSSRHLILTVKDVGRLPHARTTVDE

IL16_3, Q14005 = molecular target: IL16_3, Q14005
Inadl_1, Q8NI35 = molecular target: Inadl_1, Q8NI35
Inadl_5, Q8NI35 = molecular target: Inadl_5, Q8NI35
PARD3B_1, Q8TEW8 = molecular target: T9, PARD3B_1, Q8TEW8
T9 sequence (Q8TEW8 196-299, limits assumed, looked up): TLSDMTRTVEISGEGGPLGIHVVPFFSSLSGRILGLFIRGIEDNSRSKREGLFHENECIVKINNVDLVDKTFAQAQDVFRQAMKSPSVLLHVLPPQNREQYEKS

DLG3_1, Q92796 = molecular target: T10, DLG3_1, Q92796
T10 sequence (Q92796 125-227, limits assumed, looked up): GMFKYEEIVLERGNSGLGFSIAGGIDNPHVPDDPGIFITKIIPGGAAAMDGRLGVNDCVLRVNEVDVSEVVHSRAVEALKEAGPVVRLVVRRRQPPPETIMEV

[1] = plain residues with an end cap or a label only (N-terminal biotin on a linker: ado-ado)
[2] = plain residues with an end cap or a label only (N-terminal biotin on a linker: ahx)

GRASP, Q7Z6J2, sequence (Q7Z6J2 96-193): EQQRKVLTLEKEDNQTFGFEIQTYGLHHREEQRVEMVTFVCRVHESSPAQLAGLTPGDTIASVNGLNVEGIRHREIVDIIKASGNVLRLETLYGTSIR
MAGI2_2, Q86UL8, sequence (Q86UL8 410-522): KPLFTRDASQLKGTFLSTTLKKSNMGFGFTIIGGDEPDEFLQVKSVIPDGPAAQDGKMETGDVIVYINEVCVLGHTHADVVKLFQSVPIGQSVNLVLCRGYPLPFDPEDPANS
MAGI1_1, Q96QZ7, sequence (Q96QZ7 1-106): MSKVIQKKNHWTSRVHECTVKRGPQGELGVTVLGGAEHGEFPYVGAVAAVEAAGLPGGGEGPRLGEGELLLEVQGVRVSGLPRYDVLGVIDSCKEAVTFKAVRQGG
FRMPD2_3, Q68DX3, sequence (Q68DX3 1073-1166): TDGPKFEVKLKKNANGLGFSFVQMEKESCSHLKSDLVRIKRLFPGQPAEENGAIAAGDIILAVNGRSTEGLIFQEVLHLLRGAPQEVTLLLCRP
Inadl_1, Q8NI35, sequence (Q8NI35 113-229): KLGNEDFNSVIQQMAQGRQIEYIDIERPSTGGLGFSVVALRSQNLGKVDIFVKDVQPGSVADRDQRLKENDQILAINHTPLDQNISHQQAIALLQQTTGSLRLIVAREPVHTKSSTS
SCRIB_1, Q14160, sequence (Q14160 718-814): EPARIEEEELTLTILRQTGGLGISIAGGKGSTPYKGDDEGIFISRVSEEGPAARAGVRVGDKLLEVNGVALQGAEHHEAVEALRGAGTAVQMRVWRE
GRIP2_3, Q9C0E4, sequence (Q9C0E4 238-339): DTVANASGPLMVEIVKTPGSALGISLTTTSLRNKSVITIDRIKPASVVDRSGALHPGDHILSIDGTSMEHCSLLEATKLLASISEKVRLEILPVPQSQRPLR
Inadl_10, Q8NI35, sequence (Q8NI35 1673-1763): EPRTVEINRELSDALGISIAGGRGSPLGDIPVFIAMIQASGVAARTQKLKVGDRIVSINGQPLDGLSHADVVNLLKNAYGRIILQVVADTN
CASK, O14936, sequence (O14936 487-570): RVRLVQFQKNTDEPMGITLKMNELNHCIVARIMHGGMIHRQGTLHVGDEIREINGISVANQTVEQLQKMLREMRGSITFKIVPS
TJP2_1, Q9UDY2, sequence (Q9UDY2 24-128): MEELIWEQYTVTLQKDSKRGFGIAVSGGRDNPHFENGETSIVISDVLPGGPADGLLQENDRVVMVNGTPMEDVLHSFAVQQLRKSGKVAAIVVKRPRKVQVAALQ
GRID2IP_1, A4D2P6, sequence (A4D2P6 1-87): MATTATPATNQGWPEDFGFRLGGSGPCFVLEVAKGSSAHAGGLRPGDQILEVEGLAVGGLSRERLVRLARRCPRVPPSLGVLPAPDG
GIPC2, Q8TF65, sequence (Q8TF65 112-203): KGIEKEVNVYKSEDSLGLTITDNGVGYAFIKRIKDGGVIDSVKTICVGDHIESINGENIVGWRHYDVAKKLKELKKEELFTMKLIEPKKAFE
Inadl_5, Q8NI35, sequence (Q8NI35 673-780): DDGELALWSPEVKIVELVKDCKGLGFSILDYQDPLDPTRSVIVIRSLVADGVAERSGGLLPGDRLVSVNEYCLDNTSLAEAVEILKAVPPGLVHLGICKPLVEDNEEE
PDLIM1, O00151, sequence (O00151 1-87): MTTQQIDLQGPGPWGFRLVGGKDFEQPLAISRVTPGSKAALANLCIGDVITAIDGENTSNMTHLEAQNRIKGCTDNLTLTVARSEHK
SCRIB_2, Q14160, sequence (Q14160 857-960): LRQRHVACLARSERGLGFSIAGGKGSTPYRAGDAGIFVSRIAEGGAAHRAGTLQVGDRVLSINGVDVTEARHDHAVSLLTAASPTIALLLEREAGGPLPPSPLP
IL16_3, Q14005, sequence (Q14005 1107-1207): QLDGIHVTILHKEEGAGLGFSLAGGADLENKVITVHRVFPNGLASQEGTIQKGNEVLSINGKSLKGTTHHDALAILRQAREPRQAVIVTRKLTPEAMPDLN
MAGI2_3, Q86UL8, sequence (Q86UL8 600-682): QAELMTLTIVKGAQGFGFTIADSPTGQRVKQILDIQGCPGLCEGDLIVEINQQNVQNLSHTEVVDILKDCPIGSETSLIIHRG

Binder: PLSPEQPTKL [TRIM50, Q86XT4]
- pKd (SCRIB_2, Q14160; [1]): below the threshold
- pKd (DFNB31_1, Q9P202; [1]): below the threshold
- pKd (CASK, O14936; [1]): below the threshold
- pKd (FRMPD1, Q5SYB0; [1]): below the threshold
- pKd (MPDZ_10, O75970; [1]): below the threshold
- pKd (NHERF3_1, Q5T2W1; [1]): 3.53
- pKd (TJP2_1, Q9UDY2; [1]): below the threshold
- pKd (MAGI2_2, Q86UL8; [1]): below the threshold
- pKd (LIN7A, O14910; [1]): below the threshold
- pKd (GRID2IP_1, A4D2P6; [1]): below the threshold
- pKd (DLG2_3, Q15700; [1]): below the threshold
- pKd (Inadl_10, Q8NI35; [1]): below the threshold
- pKd (MAGI1_1, Q96QZ7; [1]): below the threshold
- pKd (GIPC2, Q8TF65; [1]): below the threshold
- pKd (GRIP2_3, Q9C0E4; [1]): below the threshold
- pKd (FRMPD2_3, Q68DX3; [1]): below the threshold
- pKd (PDLIM1, O00151; [1]): below the threshold
- pKd (GRASP, Q7Z6J2; [1]): 4
- pKd (RADIL, Q96JH8; [1]): below the threshold
- pKd (MAGI2_3, Q86UL8; [1]): below the threshold
- pKd (MPDZ_5, O75970; [1]): below the threshold
- pKd (SCRIB_1, Q14160; [1]): below the threshold
- pKd (DFNB31_2, Q9P202; [1]): below the threshold
- pKd (IL16_3, Q14005; [1]): below the threshold
- pKd (Inadl_1, Q8NI35; [1]): below the threshold
- pKd (Inadl_5, Q8NI35; [1]): below the threshold
- pKd (PARD3B_1, Q8TEW8; [1]): 4.06
- pKd (DLG3_1, Q92796; [1]): below the threshold

Binder: HNAFLSVTTV [PDZRN4, Q6ZMN7]
- pKd (SCRIB_2, Q14160; [2]): 3.71
- pKd (DFNB31_1, Q9P202; [2]): below the threshold
- pKd (CASK, O14936; [2]): below the threshold
- pKd (FRMPD1, Q5SYB0; [2]): below the threshold
- pKd (MPDZ_10, O75970; [2]): 3.75
- pKd (NHERF3_1, Q5T2W1; [2]): below the threshold
- pKd (TJP2_1, Q9UDY2; [2]): below the threshold
- pKd (MAGI2_2, Q86UL8; [2]): 3.54
- pKd (LIN7A, O14910; [2]): 3.52
- pKd (GRID2IP_1, A4D2P6; [2]): below the threshold
- pKd (DLG2_3, Q15700; [2]): 3.53
- pKd (Inadl_10, Q8NI35; [2]): 3.57
- pKd (MAGI1_1, Q96QZ7; [2]): below the threshold
- pKd (GIPC2, Q8TF65; [2]): below the threshold
- pKd (GRIP2_3, Q9C0E4; [2]): below the threshold
- pKd (FRMPD2_3, Q68DX3; [2]): below the threshold
- pKd (PDLIM1, O00151; [2]): below the threshold
- pKd (GRASP, Q7Z6J2; [2]): 3.57
- pKd (RADIL, Q96JH8; [2]): 3.61
- pKd (MAGI2_3, Q86UL8; [2]): 3.49
- pKd (MPDZ_5, O75970; [2]): 3.49
- pKd (SCRIB_1, Q14160; [2]): below the threshold
- pKd (DFNB31_2, Q9P202; [2]): below the threshold
- pKd (IL16_3, Q14005; [2]): below the threshold
- pKd (Inadl_1, Q8NI35; [2]): below the threshold
- pKd (Inadl_5, Q8NI35; [2]): below the threshold
- pKd (PARD3B_1, Q8TEW8; [2]): 3.55
- pKd (DLG3_1, Q92796; [2]): 3.56
